According to paper PMC10980420, “Abscisic acid–induced transcription factor PsMYB306 negatively regulates tree peony bud dormancy release”:

Columns and labels:
[1] = biological target: T1, PsMYB306 (Paeonia suffruticosa, UniProt A0A7M3T7P1 1-327); assay: EMSA; LightShift EMSA Optimization and Control Kit (Pierce); buffer, salt, pH and temperature not stated; conditions: protein: recombinant; tags: His (pET28a, BamHI/HindIII); label: biotin (5' of strand 1 as printed, Bio-); blunt
[2] = biological target: T1, PsMYB306; assay: competition; unlabeled competitor at 50- and 100-fold against N1; signal attenuated; LightShift EMSA Optimization and Control Kit (Pierce); buffer, salt, pH and temperature not stated; conditions: protein: recombinant; tags: His (pET28a, BamHI/HindIII); label: none; blunt

T1 sequence (A0A7M3T7P1 entry or part of it): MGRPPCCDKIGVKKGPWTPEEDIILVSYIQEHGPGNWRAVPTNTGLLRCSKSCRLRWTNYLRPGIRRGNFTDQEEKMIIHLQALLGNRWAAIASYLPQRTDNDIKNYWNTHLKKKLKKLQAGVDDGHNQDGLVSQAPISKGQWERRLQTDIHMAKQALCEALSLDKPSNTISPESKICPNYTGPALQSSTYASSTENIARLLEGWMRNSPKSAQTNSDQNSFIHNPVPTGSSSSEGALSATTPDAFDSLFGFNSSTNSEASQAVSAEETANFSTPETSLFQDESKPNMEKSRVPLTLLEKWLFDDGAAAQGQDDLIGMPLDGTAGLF

B1: pPsNCED3 mutant probe (dsDNA)
DNA 1: ACTTAGGATTACTCAGCCATAACTTCCTTCTT
DNA 2: AAGAAGGAAGTTATGGCTGAGTAATCCTAAGT
Question: Does B1 bind [1]?
Answer: no binding

B2: pPsNCED3 WT probe (dsDNA)
DNA 1: ACTTAGGATTACTAGTTAATAACTTCCTTCTT
DNA 2: AAGAAGGAAGTTATTAACTAGTAATCCTAAGT
Question: Does B2 bind [1]?
Answer: binds

B3: pPsNCED3 WT cold competitor (dsDNA)
DNA 1: B2 DNA 1
DNA 2: B2 DNA 2
Question: Does B3 bind [2]?
Answer: binds
